Measurements published in patent US8722856B2, “Anti-MUC1 antibody” (National University Corporation Hokkaido University, priority 2008, dated 2014).

Tests used:
[1] = tested on: human breast cancer cell strains (T-47D)
Experimental: Antibody-dependant cytotoxicity was analyzed by a chromium release test. Human peripheral mononuclear cell (PBMC) was separated from peripheral blood of a healthy person using Ficoll-paque PLUS (manufactured by GE Healthcare) according to the package insert. DMEM containing 10% FCS was added to the separated PBMC so that the number became 4×10^6/ml.
50 μl of physiological saline containing 1.85 MBq ^51Cr (manufactured by Perkin Elmer) was added to 200 μl of DMEM containing 1×10^6 human breast cancer cell strains (T-47D) and human mammary gland epithelial cell strains (184A1) and the reaction was allowed to proceed at 37° C. for 1 hour. Thereafter, cells were washed with 10 ml of DMEM three times, and DMEM was added to 5×10^4 cells/ml. […] Thereafter, 100 μl of PBMC was added and the reaction was allowed to proceed at 37° C. for 2 hours. Thereafter, the plate was centrifuged at 500×g for 5 minutes at room temperature and γ-ray of 100 μl of the supernatant was measured with ARC-7001 (manufactured by Aloka). Antibody-specific cytotoxicity (%) was obtained using the following calculation equation. Cytotoxicity(%)=(experimental value−natural release)/(maximum release−natural release)×100

[2] = tested on: human breast cancer tissue; test: Immunological tissue staining; details: formalin-fixed, paraffin-embedded breast cancer tissue
Source text: Immunological tissue staining of the 1B2 antibody to a piece of a human breast cancer tissue and a normal tissue around a breast cancer (BioCahin) which had been formalin-fixed and paraffin-embedded was implemented using the Vectastain elite ABC kit (manufactured by Vector Laboratories) and DAB (manufactured by Roche) according to the attached manual.

[3] = tested on: human breast cancer cell strain T-47D; test: Binding of antibody to cancer cell with FACS; format: cell-based
Experimental: Whether the MUC1 protein expressed on a surface of a cancer cell membrane and the 1B2 antibody bound thereto was investigated by FACS. A human breast cancer cell strain T-47D (ATCC, HTB-133) and a human mammary gland epithelial cell 184A1 (ATCC, CRL-8798) which had been trypsinized with Trypsin (manufactured by Invitrogen) were washed once with a FACS buffer (PBS containing 5% FCS, 0.05% sodium azide), and suspended in 100 μl of a FACS buffer containing 10 μg/ml 1B2 antibody and the reaction was allowed to proceed at room temperature for 2 hours. The resultant reaction product was washed with a FACS buffer two times, and suspended in 200 μl of FITC-Goat Anti-Mouse IgG (manufactured by ZYMED), and the reaction was allowed to proceed at room temperature for 1 hour. After washing with a FACS buffer two times, analysis was performed by FACSAria (manufactured by BD). As a result, in T-47D, the 1B2 antibody greatly shifted the fluorescent signal of FACS (about 300-fold) as compared with a control mouse IgG2a antibody (manufactured by SIGMA-ALDRICH), while in 184A, fluorescent shift by 1B2 was scarcely seen (about 2-fold).

[4] = target: T1, cancer-associated structure and normal tissue-associated structure of MUC1 (Homo sapiens, UniProt P15941); test: Sugar chain specificity, overall statements from competitive ELISA; format: binding
T1 construct: Synthesis of MUC1 Tn20-mer Glycopeptide; made in house; host or cells: chemical solid-phase synthesis, partly with enzymatic sugar extension
Experimental: (§1) Such specificity can be expressed by a difference in cross reactivity. The cross reactivity is obtained by a calculation equation of (IC50 for cancer-associated structure 2,3ST/IC50 for sugar chain structure to be compared)×100(%). As used herein, inclusion of specificity refers to a difference of 2 fold or more.
(§2) Ten days after cell fusion, screening of a specific antibody-producing cell was performed. ELISA was used in screening is as follows. To each well of a 384-well microtiter plate (manufactured by Nunc) 35 μl of a Tris buffer (50 mM Tris-HCl, pH 7.5) containing 0.35 μg of an anti-mouse IgG antibody (manufactured by Shibayagi Co., Ltd.) was added to immobilize the antibody at 4° C. for 16 hours. After these wells were washed with 90 μl of a washing solution (physiological saline containing 0.01% Tween 20) once, 200 μl of BLOCK ACE (manufactured by Dainippon Sumitomo Pharma Co., Ltd.) was added, and this was allowed to stand at room temperature for 2 hours for blocking (an anti-mouse IgG antibody solid-phased plate). After each well was washed with 90 μl of a washing solution once, 10 μl of a hybridoma culture supernatant, 10 μl of a buffer A (50 mM Tris buffer containing 0.5% bovine serum albumin, 0.01% Tween 80, 0.05% Proclin 150, and 0.15 M. NaCl, pH 7.4), and 10 μl of a buffer A containing 0.01 ng of Biotin-2,3-ST(DT*R)-20 (Compound No. 16 of Table 1) and 2 ng of Streptavidin-HRP (manufactured by PIERCE) were added to perform a reaction at 4° C. for 16 hours. Then, after each well was washed with 90 μl of a washing solution three times, 25 μl of TMB+-Substrate-Chromogen (manufactured by DAKO) was added to develop a color at room temperature for 30 minutes, 25 μl of 0.05 M sulfuric acid was added to stop the reaction, and absorbance was measured at 450 nm. […] Using a mouse monoclonal antibody isotyping ELISA kit (manufactured by BD Bioscience), a subclass of the antibody was determined and, as a result, an isotype of 1B2 was IgG2a.
(§3) Fifteen (15) μl of a buffer A containing a MUC1 antibody was added to an anti-mouse IgG antibody solid-phased plate and the reaction was allowed to proceed at room temperature for 3 hours. […] Then, after each well was washed with 90 μl of a washing solution three times, 15 μl of TMB+-Substrate-Chromogen (manufactured by DAKO) was added to develop a color at room temperature for 30 minutes, 15 μl of 0.05 M sulfuric acid was added to stop the reaction, and absorbance at 450 nm was measured.

[5] = target: T2, ST2-6(DT*R)-20 (Compound No. 10) (Homo sapiens, UniProt P15941); test: Sugar chain specificity, competitive ELISA against Biotin-Tn(DT*R)-100; format: binding; details: glycopeptide ST2-6 (Compound No. 10)
T2 construct: Synthesis of MUC1 Tn20-mer Glycopeptide; made in house; host or cells: chemical solid-phase synthesis
Experimental: as §1, §2, §3

[6] = target: T3, C6(DT*R)-20 (Compound No. 9) (Homo sapiens, UniProt P15941); test: as above; format: binding; details: glycopeptide C6 (Compound No. 9)
T3 construct: Synthesis of MUC1 Tn20-mer Glycopeptide; made in house; host or cells: chemical solid-phase synthesis
Experimental: as §1, §2, §3

[7] = target: T4, STn(DT*R)-20 (Compound No. 4) (Homo sapiens, UniProt P15941); test: as above; format: binding; details: glycopeptide STn (Compound No. 4)
T4 construct: Synthesis of MUC1 Tn20-mer Glycopeptide; made in house; host or cells: chemical solid-phase synthesis
Experimental: as §1, §2, §3

[8] = target: T5, 2,3-ST6SL(DT*R)-20 (Compound No. 8) (Homo sapiens, UniProt P15941); test: as above; format: binding; details: glycopeptide 2,3ST6SL (Compound No. 8)
T5 construct: Synthesis of MUC1 Tn20-mer Glycopeptide; made in house; host or cells: chemical solid-phase synthesis (Compound 5), then enzymatic sugar extension
Experimental: as §1, §2, §3

[9] = target: T6, T(DT*R)-20 (Compound No. 1) (Homo sapiens, UniProt P15941); test: as above; format: binding; details: glycopeptide T (Compound No. 1)
T6 construct: Synthesis of MUC1 Tn20-mer Glycopeptide; made in house; host or cells: chemical solid-phase synthesis
Experimental: as §1, §2, §3

[10] = target: T7, Tn(DT*R)-20 (Compound No. 3) (Homo sapiens, UniProt P15941); test: as above; format: binding; details: glycopeptide Tn (Compound No. 3)
T7 construct: Synthesis of MUC1 Tn20-mer Glycopeptide; made in house; host or cells: chemical solid-phase synthesis
Experimental: as §1, §2, §3

T1 sequence (P15941 136-155): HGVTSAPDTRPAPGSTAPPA

IC50 for a cancer-associated structure [4]: ≤ 100 nM
cross reactivity for the normal tissue-associated structure, letting 2,3ST to be 100% [4]: ≤ 1%
specificity for a cancer-associated structure as compared with that for a normal tissue-associated structure [4]: at least 100 fold
cross reactivity with a sugar chain structure highly expressed in normal cells ([4]; 2,3ST6L(DT*R)-20, 2,3-ST6SL(DT*R)-20): low cross reactivity
affinity for a sugar chain structure highly expressed in cancer cells ([4]; T(DT*R)-20, 2,3-ST(DT*R)-20, Tn(DT*R)-20): high affinity
Cross reactivity letting 2,3-ST to be 100% [5]: 0.15%
Cross reactivity letting 2,3-ST to be 100% [6]: 0.75%
Cross reactivity letting 2,3-ST to be 100% [7]: 0.36%
Cross reactivity letting 2,3-ST to be 100% [8]: 0.064%
Cross reactivity letting 2,3-ST to be 100% [9]: 96%
Cross reactivity letting 2,3-ST to be 100% [10]: 81%
B1: 1B2: mouse monoclonal anti-MUC1 antibody, isotype IgG2a, clone from immunization with 2,3-ST(DT*R)-20 conjugated to BSA (antibody, V domains shown)
VH: MEWIWIFLFILSGTAGVQSQVQLQQSGAELARPGASVKLSCKASGYTFTNYGLSWVKQRTGQGLEWIGENHPGSGIIYHNEKFRGKATLTADKSSSTAYVQLSSLTSEDSAVYFCARSSGTRGFAYWGQGTLVTVSA
VL: MKLPVRLLVLMFWIPASSSDVLMTQTPLSLPVSLGDQASISCRSSQSIVHSNGNTYLEWYLQKPGQSPKLLIYKVSNRFSGVPDRFSGSGSGTDFTLKISRVEAEDLGVYYCFQGSHGPWTFGGGTKLEIKRA
modifications: Antibody 1B2 VH sequence; Antibody 1B2 VL sequence
Antibody-specific cytotoxicity [1]: about 15%
stained image [2]: recognized
reaction with breast cancer cell (FACS) [3]: strongly reacts
shift of fluorescent signal of FACS as compared with control mouse IgG2a antibody ([3]; 10 μg/ml antibody): about 300 fold
